Assay results reported in publication PMC5473857, “ZipA and FtsA* stabilize FtsZ-GDP miniring structures” (Scientific Reports, 2017).
Substitutions are numbered along the chain they refer to. Names and notes keep the numbering of the source.

B1: PaFtsZ (FtsZ from Pseudomonas aeruginosa), full length (natural protein, UniProt P47204 1-394, looked up)
chain: MFELVDNIAQTAVIKVIGVGGGGGNAVNHMAKNNVEGVEFICANTDAQALKNIAARTVLQLGPGVTKGLGAGANPEVGRQAALEDRERISEVLEGADMVFITTGMGGGTGTGAAPIIAEVAKEMGILTVAVVTRPFPFEGRKRMQIADEGIRALAESVDSLITIPNEKLLTILGKDASLLAAFAKADDVLAGAVRGISDIIKRPGMINVDFADVKTVMSEMGMAMMGTGCASGPNRAREATEAAIRNPLLEDVNLQGARGILVNITAGPDLSLGEYSDVGNIIEQFASEHATVKVGTVIDADMRDELHVTVVATGLGARLEKPVKVVDNTVQGSAAQAAAPAQREQQSVNYRDLDRPTVMRNQSHGSAATAAKLNPQDDLDYLDIPAFLRRQAD
notes: Cell division protein FtsZ, Pseudomonas aeruginosa; also called His6-PaFtsZ; source: expressed from pET15b (NdeI/BamHI), purified (Talon column, thrombin, source Q 10/10 column)
B2: FtsZ from E. coli (wild type, unlabeled) (natural protein, UniProt P0A9A6 1-383, looked up)
chain: MFEPMELTNDAVIKVIGVGGGGGNAVEHMVRERIEGVEFFAVNTDAQALRKTAVGQTIQIGSGITKGLGAGANPEVGRNAADEDRDALRAALEGADMVFIAAGMGGGTGTGAAPVVAEVAKDLGILTVAVVTKPFNFEGKKRMAFAEQGITELSKHVDSLITIPNDKLLKVLGRGISLLDAFGAANDVLKGAVQGIAELITRPGLMNVDFADVRTVMSEMGYAMMGSGVASGEDRAEEAAEMAISSPLLEDIDLSGARGVLVNITAGFDLRLDEFETVGNTIRAFASDNATVVIGTSLDPDMNDELRVTVVATGIGMDKRPEITLVTNKQVQQPVMDRYQQHGMAPLTQEQKPVAKVVNDNAPQTAKEPDYLDIPAFLRKQAD
notes: Cell division protein FtsZ, E. coli; assembles into polymers with GTP, GDP or GMPCPP; also called FtsZ-GTP; FtsZ-GDP; source: over-expressed from plasmid pET11b, purified (30% saturated ammonium sulfate, source Q 10/10 column)
B3: FtsZ T151C/Y222W labeled with ATTO-655-maleimide (natural protein, E. coli, UniProt P0A9A6 1-383, looked up)
chain: B2 chain with T151C, Y222W
modifications: labeled with ATTO-655-maleimide
notes: Cell division protein FtsZ, E. coli, double mutant T151C/Y222W; Used diluted with a 9-fold excess of unlabeled wild-type FtsZ; also called FtsZY222W/T151C; labeled FtsZ; source: over-expressed from plasmid pET11b, purified (ammonium sulfate, source Q 10/10 column)

Columns and labels:
[1] = target: the molecule itself; test: negative-stain electron microscopy; FtsZ alone assembled with 0.5 mM GDP, HMK buffer pH 7.5; 5 uM (and 15 uM for E. coli FtsZ); 2% uranyl acetate
[2] = target: the molecule itself; test: negative-stain electron microscopy; FtsZ alone assembled with GTP; 5 uM FtsZ in HMK buffer pH 7.5 (50 mM HEPES, 100 mM KAc, 5 mM MgAc); also 5 and 10 uM FtsZ in MEK buffer pH 6.5 with 1 mM EDTA plus GTP, and 5 uM FtsZ in HMK with 0.5 mM GMPCPP; 2% uranyl acetate
[3] = target: B2; test: Trp quenching of ATTO fluorescence; 1 part ATTO-655-labeled FtsZ T151C/Y222W mixed with 9 parts unlabeled wild-type FtsZ; MMK buffer pH 6.5; 25 °C; excitation 650 nm, emission 680 nm; assembly kinetics; details: both partners purified

B1
binding result [1]: binds

B2
binding result [2]: binds

B3
binding result [3]: binds
